Data: PMC8094900
Blank lines part the entries; values can stand above or below the substance they belong to.

Experiments:
[1] = molecular target: Myrf N-terminal fragment (wild-type mouse Myrf) (mouse); test: cold western blot (SDS-PAGE in a cold chamber); N-terminally Flag-tagged Myrf constructs expressed in Oli-neu cells; SDS-PAGE in a cold condition, membrane probed with Flag antibodies; ratio of trimeric to monomeric N-terminal fragment
[2] = molecular target: Myrf-F387S N-terminal fragment; test: cold western blot (cold SDS-PAGE, Flag immunoblot); settings: Flag-tagged constructs expressed in Oli-neu cells; SDS-PAGE in a cold condition; parent: est. 0.27; read off a plot
[3] = molecular target: Myrf-G435R N-terminal fragment; test: cold western blot (cold SDS-PAGE, Flag immunoblot); settings: Flag-tagged constructs expressed in Oli-neu cells; SDS-PAGE in a cold condition; parent: est. 0.27; read off a plot
[4] = molecular target: Myrf-L479V N-terminal fragment; test: cold western blot (cold SDS-PAGE, Flag immunoblot); settings: Flag-tagged constructs expressed in Oli-neu cells; SDS-PAGE in a cold condition; parent: est. 0.27; read off a plot
[5] = molecular target: Myrf-Q403H N-terminal fragment; test: cold western blot (cold SDS-PAGE, Flag immunoblot); settings: Flag-tagged constructs expressed in Oli-neu cells; SDS-PAGE in a cold condition; parent: est. 0.27; read off a plot

Chain of Myrf N-terminal fragment (wild-type mouse Myrf) (Q3UR85 whole entry, the tested form may be a part): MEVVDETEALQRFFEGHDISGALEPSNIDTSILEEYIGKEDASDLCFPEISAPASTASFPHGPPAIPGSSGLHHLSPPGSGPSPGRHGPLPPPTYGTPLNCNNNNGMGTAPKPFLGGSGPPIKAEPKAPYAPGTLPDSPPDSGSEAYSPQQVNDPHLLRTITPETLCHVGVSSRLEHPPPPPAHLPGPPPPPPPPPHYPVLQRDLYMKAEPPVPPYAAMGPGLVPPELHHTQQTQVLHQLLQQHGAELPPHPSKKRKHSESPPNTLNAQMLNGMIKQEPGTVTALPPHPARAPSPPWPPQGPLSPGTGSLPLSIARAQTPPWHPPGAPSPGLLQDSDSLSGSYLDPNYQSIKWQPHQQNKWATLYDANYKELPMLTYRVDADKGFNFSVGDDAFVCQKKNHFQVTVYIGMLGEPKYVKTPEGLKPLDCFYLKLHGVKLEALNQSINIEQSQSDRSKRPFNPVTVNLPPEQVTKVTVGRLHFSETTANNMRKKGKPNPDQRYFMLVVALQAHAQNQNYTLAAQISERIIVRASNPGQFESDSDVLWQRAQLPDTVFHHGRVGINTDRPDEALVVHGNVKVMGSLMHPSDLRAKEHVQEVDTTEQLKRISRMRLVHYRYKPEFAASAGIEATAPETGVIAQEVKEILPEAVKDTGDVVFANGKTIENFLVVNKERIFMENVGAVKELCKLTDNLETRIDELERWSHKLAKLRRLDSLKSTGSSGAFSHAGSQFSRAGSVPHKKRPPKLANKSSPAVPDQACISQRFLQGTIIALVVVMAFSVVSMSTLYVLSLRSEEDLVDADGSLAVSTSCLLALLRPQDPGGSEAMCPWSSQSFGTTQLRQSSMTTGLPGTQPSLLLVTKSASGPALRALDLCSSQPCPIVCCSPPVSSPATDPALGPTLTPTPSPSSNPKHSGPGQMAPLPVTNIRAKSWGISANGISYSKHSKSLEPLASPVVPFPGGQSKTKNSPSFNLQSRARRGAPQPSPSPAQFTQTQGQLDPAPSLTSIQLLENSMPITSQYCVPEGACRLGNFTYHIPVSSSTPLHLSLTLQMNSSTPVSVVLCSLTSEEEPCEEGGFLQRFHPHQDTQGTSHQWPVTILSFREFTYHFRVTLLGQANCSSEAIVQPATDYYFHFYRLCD

stoichiometry N [1]: 3
Substance: Myrf N-terminal fragment (wild-type mouse Myrf) (domain or fragment)

other: Trimer/(Trimer+Monomer) [2]: 0.045
Substance: Myrf N-terminal fragment (wild-type mouse Myrf) F387S

other: Trimer/(Trimer+Monomer) [3]: 0.02
Substance: Myrf N-terminal fragment (wild-type mouse Myrf) G435R

other: Trimer/(Trimer+Monomer) [4]: 0.01
Substance: Myrf N-terminal fragment (wild-type mouse Myrf) L479V

other: Trimer/(Trimer+Monomer) [5]: 0.08
Substance: Myrf N-terminal fragment (wild-type mouse Myrf) Q403H
